Experimental data as given in patent US20180355338A1.

Columns and labels:
[1] = biological target: TY-145 protease variant I150N, S173P, S175P, F180Y (Bacillus sp. TY-145); assay: Ki fitted from Suc-AAPF-pNA activity; Tris buffer pH 8; ratio against m3 (without I150N)
[2] = biological target: TY-145 protease variant K146A, S173P, S175P, F180Y (Bacillus sp. TY-145); assay: Ki fitted from Suc-AAPF-pNA activity; Tris buffer pH 8; ratio against m3 (without K146A)
[3] = biological target: TY-145 protease variant K146T, S173P, S175P, F180Y (Bacillus sp. TY-145); assay: Ki fitted from Suc-AAPF-pNA activity; Tris buffer pH 8; ratio against m3 (without K146T)
[4] = biological target: TY-145 protease variant S114Q, S173P, S175P, F180Y (Bacillus sp. TY-145); assay: Ki fitted from Suc-AAPF-pNA activity; Tris buffer pH 8; ratio against m3 (without S114Q)
[5] = biological target: TY-145 protease variant I150A, S173P, S175P, F180Y (Bacillus sp. TY-145); assay: Ki fitted from Suc-AAPF-pNA activity; Model B detergent; ratio against m3 (without I150A)
[6] = biological target: TY-145 protease variant I150N, S173P, S175P, F180Y (Bacillus sp. TY-145); assay: Ki fitted from Suc-AAPF-pNA activity; Model B detergent; ratio against m3 (without I150N)
[7] = biological target: TY-145 protease variant K146A, S173P, S175P, F180Y (Bacillus sp. TY-145); assay: Ki fitted from Suc-AAPF-pNA activity; Model B detergent; ratio against m3 (without K146A)
[8] = biological target: TY-145 protease variant K146F, S173P, S175P, F180Y (Bacillus sp. TY-145); assay: Ki fitted from Suc-AAPF-pNA activity; Model B detergent; ratio against m3 (without K146F)
[9] = biological target: TY-145 protease variant K146N, S173P, S175P, F180Y (Bacillus sp. TY-145); assay: Ki fitted from Suc-AAPF-pNA activity; Model B detergent; ratio against m3 (without K146N)
[10] = biological target: TY-145 protease variant S173P, S175P, F180Y, L184D (Bacillus sp. TY-145); assay: Ki fitted from Suc-AAPF-pNA activity; Model B detergent; ratio against m3 (without L184D)
[11] = biological target: TY-145 protease variant S173P, S175P, F180Y, L184W (Bacillus sp. TY-145); assay: Ki fitted from Suc-AAPF-pNA activity; Model B detergent; ratio against m3 (without L184W)
[12] = biological target: TY-145 protease variant S173P, S175P, N176Y, F180Y (Bacillus sp. TY-145); assay: Ki fitted from Suc-AAPF-pNA activity; Model B detergent; ratio against m3 (without N176Y)
[13] = biological target: TY-145 protease variant S173P, S175P, F180Y, R224S (Bacillus sp. TY-145); assay: Ki fitted from Suc-AAPF-pNA activity; Model B detergent; ratio against m3 (without R224S)
[14] = biological target: TY-145 protease variant S27K, I150N, S171N, S173P, G174R, S175P, F180Y, Q198E, T297P (Bacillus sp. TY-145); assay: Ki fitted from Suc-AAPF-pNA activity; Model B detergent; ratio against m4 (without I150N)
[15] = biological target: TY-145 protease variant S27K, S171N, S173P, G174R, S175P, F180Y, L184Y, Q198E, T297P (Bacillus sp. TY-145); assay: Ki fitted from Suc-AAPF-pNA activity; Model B detergent; ratio against m4 (without L184Y)
[16] = biological target: TY-145 protease variant S27K, K146P, S148R, A151R, S171N, S173P, G174R, S175P, F180Y, Q198E, N199K, T297P (Bacillus sp. TY-145); assay: Ki fitted from Suc-AAPF-pNA activity; Model B detergent; ratio against m5 (without A151R)
[17] = biological target: TY-145 protease variant S27K, I121V, S171N, S173P, G174R, S175P, F180Y, Q198E, R224S, T297P (Bacillus sp. TY-145); assay: Ki fitted from Suc-AAPF-pNA activity; Model B detergent; ratio against m6 (without R224S)
[18] = biological target: TY-145 protease variant S27K, S173P, G174K, S175P, F180Y, L184F, Q198E, N199K, T297P (Bacillus sp. TY-145); assay: Ki fitted from Suc-AAPF-pNA activity; Model B detergent; ratio against m8 (without L184F)
[19] = biological target: TY-145 protease variant S27K, S173P, G174K, S175P, F180Y, L184Y, Q198E, N199K, T297P (Bacillus sp. TY-145); assay: Ki fitted from Suc-AAPF-pNA activity; Model B detergent; ratio against m8 (without L184Y)
[20] = biological target: TY-145 protease variant S27K, S173P, G174K, S175P, F180Y, L184Y, Q197K, Q198E, T297P (Bacillus sp. TY-145); assay: Ki fitted from Suc-AAPF-pNA activity; Model B detergent; ratio against m10 (without L184Y)
[21] = biological target: TY-145 protease variant S27K, S171N, S173P, G174R, S175P, F180Y, Q198E, N199K, R224G, T297P (Bacillus sp. TY-145); assay: Ki fitted from Suc-AAPF-pNA activity; Model B detergent; ratio against m11 (without R224G)
[22] = biological target: TY-145 protease variant S27K, V162T, S173P, G174K, S175P, F180Y, L184F, Q197K, Q198E, T297P (Bacillus sp. TY-145); assay: Ki fitted from Suc-AAPF-pNA activity; Model B detergent; ratio against m14 (without L184F)
[23] = biological target: TY-145 protease (mature, SEQ ID NO: 3) (Bacillus sp. TY-145); assay: Ki fitted from Suc-AAPF-pNA activity; Model B detergent; the reference itself (TY145 backbone)
[24] = biological target: TY-145 protease variant S173P, S175P, F180Y, L184F (Bacillus sp. TY-145); assay: Ki fitted from Suc-AAPF-pNA activity; Model B detergent; ratio against m3 (without L184F); second row of the same variant

How did the relative Ki mutation [1] turn out when “Z-Gly-Ala-NHCH(CH2C6H4pOH)C(OH)(SO3Na)-H, wherein Z is benzyloxycarbonyl (peptide)” was run?
Its relative Ki mutation is 0.21.

And the relative Ki mutation [2]?
Its relative Ki mutation is 0.29.

What about the relative Ki mutation [3] of the same substance?
Its relative Ki mutation is 0.06.

And the relative Ki mutation [4]?
The relative Ki mutation was 0.34.

What about the relative Ki mutation [5] of the same substance?
The relative Ki mutation was 0.5.

What about the relative Ki mutation [6] of the same substance?
Its relative Ki mutation is 0.35.

And the relative Ki mutation [7]?
Its relative Ki mutation is 0.34.

What about the relative Ki mutation [8] of the same substance?
The relative Ki mutation was 0.25.

What about the relative Ki mutation [9] of the same substance?
The relative Ki mutation was 0.93.

And the relative Ki mutation [10]?
The relative Ki mutation was 0.37.

And the relative Ki mutation [11]?
The relative Ki mutation was 0.5.

What about the relative Ki mutation [12] of the same substance?
The relative Ki mutation was 0.81.

And the relative Ki mutation [13]?
The relative Ki mutation was 0.5.

What about the relative Ki mutation [14] of the same substance?
The relative Ki mutation was 0.24.

What about the relative Ki mutation [15] of the same substance?
Its relative Ki mutation is 0.18.

What about the relative Ki mutation [16] of the same substance?
Its relative Ki mutation is 0.75.

What about the relative Ki mutation [17] of the same substance?
Its relative Ki mutation is 0.56.

And the relative Ki mutation [18]?
Its relative Ki mutation is 0.36.

What about the relative Ki mutation [19] of the same substance?
Its relative Ki mutation is 0.21.

And the relative Ki mutation [20]?
Its relative Ki mutation is 0.32.

What about the relative Ki mutation [21] of the same substance?
The relative Ki mutation was 0.74.

And the relative Ki mutation [22]?
Its relative Ki mutation is 0.17.

What about the IF (binding constant improvement factor, relative Ki) [23] of the same substance?
Its IF (binding constant improvement factor, relative Ki) is 1.

What about the relative Ki mutation [24] of the same substance?
The relative Ki mutation was 0.27.
